From publication PMC8908270, “Multimodal regulation of myosin VI ensemble transport by cargo adaptor protein GIPC” (The Journal of Biological Chemistry, 2022)

B1: GIPC MIR, C-terminal SNAP-tagged (domain or fragment, human, UniProt O14908 261-333, looked up)
chain: EEKAIEKVDDLLESYMGIRDTELAATMVELGKDKRNPDELAEALDERLGDFAFPDEFVFDVWGAIGDAKVGRY
modifications: benzylguanine-labeled DNA oligo on the SNAP tag (DNA origami scaffold assay)
B2: Myosin VI FL-SNAP (natural protein, human, UniProt Q9UM54 1-1294, looked up)
chain: MEDGKPVWAPHPTDGFQMGNIVDIGPDSLTIEPLNQKGKTFLALINQVFPAEEDSKKDVEDNCSLMYLNEATLLHNIKVRYSKDRIYTYVANILIAVNPYFDIPKIYSSEAIKSYQGKSLGTRPPHVFAIADKAFRDMKVLKMSQSIIVSGESGAGKTENTKFVLRYLTESYGTGQDIDDRIVEANPLLEAFGNAKTVRNNNSSRFGKFVEIHFNEKSSVVGGFVSHYLLEKSRICVQGKEERNYHIFYRLCAGASEDIREKLHLSSPDNFRYLNRGCTRYFANKETDKQILQNRKSPEYLKAGSMKDPLLDDHGDFIRMCTAMKKIGLDDEEKLDLFRVVAGVLHLGNIDFEEAGSTSGGCNLKNKSAQSLEYCAELLGLDQDDLRVSLTTRVMLTTAGGTKGTVIKVPLKVEQANNARDALAKTVYSHLFDHVVNRVNQCFPFETSSYFIGVLDIAGFEYFEHNSFEQFCINYCNEKLQQFFNERILKEEQELYQKEGLGVNEVHYVDNQDCIDLIEAKLVGILDILDEENRLPQPSDQHFTSAVHQKHKDHFRLTIPRKSKLAVHRNIRDDEGFIIRHFAGAVCYETTQFVEKNNDALHMSLESLICESRDKFIRELFESSTNNNKDTKQKAGKLSFISVGNKFKTQLNLLLDKLRSTGASFIRCIKPNLKMTSHHFEGAQILSQLQCSGMVSVLDLMQGGYPSRASFHELYNMYKKYMPDKLARLDPRLFCKALFKALGLNENDYKFGLTKVFFRPGKFAEFDQIMKSDPDHLAELVKRVNHWLTCSRWKKVQWCSLSVIKLKNKIKYRAEACIKMQKTIRMWLCKRRHKPRIDGLVKVGTLKKRLDKFNEVVSVLKDGKPEMNKQIKNLEISIDTLMAKIKSTMMTQEQIQKEYDALVKSSEELLSALQKKKQQEEEAERLRRIQEEMEKERKRREEDEKRRRKEEEERRMKLEMEAKRKQEEEERKKREDDEKRIQAEVEAQLARQKEEESQQQAVLEQERRDRELALRIAQSEAELISDEAQADLALRRSLDSYPVSKNDGTRPKMTPEQMAKEMSEFLSRGPAVLATKAAAGTKKYDLSKWKYAELRDTINTSCDIELLAACREEFHRRLKVYHAWKSKNKKRNTETEQRAPKSVTDYDFAPFLNNSPQQNPAAQIPARQREIEMNRQQRFFRIPFIRPADQYKDPQSKKKGWWYAHFDGPWIARQMELHPDKPPILLVAGKDDMEMCELNLEETGLTRKRGAEILPRQFEEIWERCGGIQYLQNAIESRQARPTYATAMLQSLLK
modifications: Cy3-conjugated (single-molecule TIRF assay); benzylguanine-labeled DNA oligo on the SNAP tag (nanotube and origami assays)

Tests used:
[1] = target: mCerulean (mCer)-tagged myosin VI CBD (human) (UniProt Q9UM54); assay: FRET or BRET; bimolecular FRET in solution; CBD-mCer held constant at 30 nM, increasing GIPC MIR–mCit titrated; excitation 430 nm; ΔFRET fit to a hyperbolic dose–response; three protein preparations
Myosin VI FL-SNAP = target: B2; assay: cell-based or functional assay
[2] = target: B1; assay: cell-based or functional assay

Q: How did the Kd [1] turn out when “mCitrine (mCit)-tagged GIPC MIR (from UniProt O14908 261-333) (domain or fragment)” was run?
A: The Kd was 120 nM.

Q: With B1 as the molecule, how does the “actin gliding speed in the DNA nanotube assay (Myosin VI FL-SNAP patterned at 14 or 28 nm spacing), with 2 μM GIPC MIR against without” value (Myosin VI FL-SNAP) read?
A: Its value is 2.5 fold.

Q: With B2 as the molecule, how does the “speed of DNA origami scaffolds on single actin filaments, myosin VI recruited through GIPC MIR against direct attachment” value [2] read?
A: Its value is 2.3 fold.
